The results in this text go back to publication PMC3743950.

Usually stoichiometry N stands for the number of molecules, sites or subunits per partner or assembly.

Test [1] deals with DrP5CDHR102A (Deinococcus radiodurans). Nature of the test: SAXS + other: DLS.
The target in test [2] is TtP5CDHK104A (Thermus thermophilus HB27). In words: DLS.
In test [3] the target is TtP5CDHR100A (Thermus thermophilus HB27). In words: SAXS + other: DLS.
In test [4] the target is TtP5CDHR100A/K104A/R111A (Thermus thermophilus HB27). In words: DLS.
Test [5] addresses TtP5CDHR111A (Thermus thermophilus HB27). Nature of the test: SAXS + other: DLS.
The target in test [6] is TtP5CDHR153A (Thermus thermophilus HB27). Nature of the test: DLS.
Test [7] addresses Δ1-pyrroline-5-carboxylate dehydrogenase from Bacillus halodurans (Bacillus halodurans). Nature of the test: SAXS + other: DLS.
For test [8], the target named is Δ1-pyrroline-5-carboxylate dehydrogenase from Bacillus licheniformis (Bacillus licheniformis). In words: DLS.
Test [9] addresses Δ1-pyrroline-5-carboxylate dehydrogenase from Deinococcus radiodurans (Deinococcus radiodurans). In words: SAXS + other: DLS.
The target of test [10] is Δ1-pyrroline-5-carboxylate dehydrogenase from Thermus thermophilus (Thermus thermophilus HB27). In words: SAXS + other: DLS.

For the substance DrP5CDHR102A (enzyme), the stoichiometry N in test [1] was 2.
Substance TtP5CDHK104A (enzyme) had a stoichiometry N in test [2] of 6.
Turning to TtP5CDHR100A (enzyme), in test [3], the stoichiometry N turned out to be 2.
On to TtP5CDHR100A/K104A/R111A (enzyme), for which, in [4], the stoichiometry N is 2.
For the substance TtP5CDHR111A (enzyme), the stoichiometry N in test [5] is 6.
Substance TtP5CDHR153A (enzyme) had a stoichiometry N in test [6] of 6.
With “Δ1-pyrroline-5-carboxylate dehydrogenase from Bacillus halodurans (enzyme)”, the stoichiometry N in test [7] came out at 2.
Substance “Δ1-pyrroline-5-carboxylate dehydrogenase from Bacillus licheniformis (enzyme)” showed a stoichiometry N in [8] of 2.
As to “Δ1-pyrroline-5-carboxylate dehydrogenase from Deinococcus radiodurans (enzyme)”, the stoichiometry N in test [9] was 6.
For the substance “Δ1-pyrroline-5-carboxylate dehydrogenase from Thermus thermophilus (enzyme)”, the stoichiometry N in [10] is 6.
